Laboratory results taken from the supplement of paper PMC10065799, “High-throughput profiling of sequence recognition by tyrosine kinases and SH2 domains using bacterial peptide display” (eLife, 2023).

Test system: c-Src
Assay: phosphorylation enrichment, bacterial display (enrichment ratio); higher = better substrate or ligand; peptides without Tyr show the background
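Note: 11-residue human phosphosite peptides and single-mutation variants displayed on the E. coli surface, counted by deep sequencing, each peptide's frequency after selection divided by its frequency in the unselected input library; frequency after pTyr selection over input frequency; kinase dosed for 20-30% of maximal phosphorylation in three min.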

| Sequence | phosphorylation enrichment |
| --- | --- |
| FFIMMYTGSNV [DNAJC13_Y1131] | 0.4 |
| CTTIHNNYMCN [TP53_Y234_Y234N] | 0.385 |
| VEFAKYGSLRG [RET_Y809_YF] | 0.437 |
| ALAHKYHGGGG [HBB_Y146] | 0.383 |
| SVVVPYEAPEV [TP53_Y220_P222A] | 0.405 |
| NNHGNYIVLLG [ETFDH_Y172_R175L] | 0.522 |
| GGDAVYTNGAI [RFX2_Y82] | 1.09 |
| PVVKLYATDGR [RP1_Y199] | 0.576 |
| GHGRFYMKEAI [PGM1_Y66_D62H] | 0.36 |
| HEKKAYAFCGT [RPS6KA3_Y226_S227A] | 0.498 |
| RGDCTYAPLLG [AR_Y269_M268T] | 6.35 |
| QRTMKYTTATE [MCCC1_Y41_G46E] | 0.706 |
| HRGCLYLAIEY [TEK_Y899_Y897C] | 0.936 |
| SFGENYDNSKS [MAN1B1_Y60] | 0.464 |
| PHQTIYSALMI [FGF23_Y70] | 10.4 |
| ALAHKYLGGGG [HBB_Y146_H147L] | 0.278 |
| NNIDYYKKTTN [FGFR2_Y657] | 0.492 |

| Sequence | phosphorylation enrichment |
| --- | --- |
| LASSEYPVQRR [GALK1_Y236_R239Q] | 0.707 |
| TFEPNYGTVKR [RAPGEF6_Y1447_Q1452R_YF] | 2.66 |
| VFDMLYQVANL [USP24_Y1087_L1089V] | 4.11 |
| HKDNNYISMWF [PAPOLG_Y432_V433I] | 0.663 |
| ARMTNCGLPRY [TSPAN12_Y138_Y138C] | 0.456 |
| FQSKHYACIRQ [TIMP3_Y182_YF] | 0.425 |
| KSLSQYLEMDK [CAGE1_Y438_V435L] | 0.4 |
| PHRSIYFSSPK [MPG_Y75_Y71H] | 0.786 |
| DHKRQYELLKL [KIF4B_Y684_R680H] | 0.411 |
| AAVDEYLEYRR [FAM221A_Y17] | 0.925 |
| IEEGTYGVVYR [CDK11B_Y449] | 5.65 |
| SNKLYYQLEQE [PDPR_Y110] | 2.36 |
| SAASSYSFSDL [EMD_Y59] | 0.455 |
| CDTKLYTSVPN [DNTTIP2_Y427_A430V] | 0.849 |
| MEVGQYIFVKC [CYBB_Y324] | 0.463 |
| DYNPNYCFAGK [ALK_Y1096] | 0.63 |

Test system: AncSZ
Assay: as above

| Sequence | phosphorylation enrichment |
| --- | --- |
| FFIMMYTGSNV [DNAJC13_Y1131] | 1.3 |
| CTTIHNNYMCN [TP53_Y234_Y234N] | 0.712 |
| VEFAKYGSLRG [RET_Y809_YF] | 0.629 |
| ALAHKYHGGGG [HBB_Y146] | 0.621 |
| SVVVPYEAPEV [TP53_Y220_P222A] | 1.2 |
| NNHGNYIVLLG [ETFDH_Y172_R175L] | 0.979 |
| GGDAVYTNGAI [RFX2_Y82] | 0.654 |
| PVVKLYATDGR [RP1_Y199] | 0.781 |
| GHGRFYMKEAI [PGM1_Y66_D62H] | 0.684 |
| HEKKAYAFCGT [RPS6KA3_Y226_S227A] | 0.654 |
| RGDCTYAPLLG [AR_Y269_M268T] | 1.21 |
| QRTMKYTTATE [MCCC1_Y41_G46E] | 1.43 |
| HRGCLYLAIEY [TEK_Y899_Y897C] | 1.86 |
| SFGENYDNSKS [MAN1B1_Y60] | 0.766 |
| PHQTIYSALMI [FGF23_Y70] | 1.26 |
| ALAHKYLGGGG [HBB_Y146_H147L] | 0.378 |
| NNIDYYKKTTN [FGFR2_Y657] | 0.616 |

| Sequence | phosphorylation enrichment |
| --- | --- |
| LASSEYPVQRR [GALK1_Y236_R239Q] | 0.732 |
| TFEPNYGTVKR [RAPGEF6_Y1447_Q1452R_YF] | 0.707 |
| VFDMLYQVANL [USP24_Y1087_L1089V] | 1.79 |
| HKDNNYISMWF [PAPOLG_Y432_V433I] | 1.93 |
| ARMTNCGLPRY [TSPAN12_Y138_Y138C] | 0.588 |
| FQSKHYACIRQ [TIMP3_Y182_YF] | 0.692 |
| KSLSQYLEMDK [CAGE1_Y438_V435L] | 0.793 |
| PHRSIYFSSPK [MPG_Y75_Y71H] | 0.498 |
| DHKRQYELLKL [KIF4B_Y684_R680H] | 0.472 |
| AAVDEYLEYRR [FAM221A_Y17] | 1.1 |
| IEEGTYGVVYR [CDK11B_Y449] | 1.33 |
| SNKLYYQLEQE [PDPR_Y110] | 1.37 |
| SAASSYSFSDL [EMD_Y59] | 0.839 |
| CDTKLYTSVPN [DNTTIP2_Y427_A430V] | 0.96 |
| MEVGQYIFVKC [CYBB_Y324] | 1.74 |
| DYNPNYCFAGK [ALK_Y1096] | 1.82 |

Target: MERTK (UniProt Q12866)
Assay: as above

Sequence of MERTK (Q12866 whole entry, looked up): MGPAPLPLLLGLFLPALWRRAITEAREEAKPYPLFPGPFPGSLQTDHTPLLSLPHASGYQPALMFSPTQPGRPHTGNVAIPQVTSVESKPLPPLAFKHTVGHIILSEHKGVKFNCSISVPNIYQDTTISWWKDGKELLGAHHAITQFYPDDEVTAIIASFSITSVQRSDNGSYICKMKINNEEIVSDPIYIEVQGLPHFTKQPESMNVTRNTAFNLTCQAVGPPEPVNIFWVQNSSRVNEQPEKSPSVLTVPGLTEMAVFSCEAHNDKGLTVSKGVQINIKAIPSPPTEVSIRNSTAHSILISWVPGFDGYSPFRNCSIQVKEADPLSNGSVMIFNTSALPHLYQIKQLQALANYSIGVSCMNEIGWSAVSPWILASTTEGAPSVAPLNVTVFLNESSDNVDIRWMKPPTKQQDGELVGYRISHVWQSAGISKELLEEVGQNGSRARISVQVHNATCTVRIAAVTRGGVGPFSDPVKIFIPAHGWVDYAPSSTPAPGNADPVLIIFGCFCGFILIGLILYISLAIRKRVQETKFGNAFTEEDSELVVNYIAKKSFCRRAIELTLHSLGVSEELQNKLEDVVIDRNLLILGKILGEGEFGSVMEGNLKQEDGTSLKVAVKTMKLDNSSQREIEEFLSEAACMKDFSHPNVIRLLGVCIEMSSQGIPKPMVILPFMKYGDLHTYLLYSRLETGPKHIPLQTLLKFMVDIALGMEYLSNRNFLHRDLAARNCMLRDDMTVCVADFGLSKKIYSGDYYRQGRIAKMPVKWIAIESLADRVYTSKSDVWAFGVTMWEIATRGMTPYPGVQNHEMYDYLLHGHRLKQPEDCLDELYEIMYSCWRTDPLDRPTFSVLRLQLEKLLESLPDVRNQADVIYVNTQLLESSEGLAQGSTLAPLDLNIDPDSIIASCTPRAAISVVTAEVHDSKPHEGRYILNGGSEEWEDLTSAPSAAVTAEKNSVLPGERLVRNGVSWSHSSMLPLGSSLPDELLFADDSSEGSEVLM

| Sequence | phosphorylation enrichment |
| --- | --- |
| FFIMMYTGSNV [DNAJC13_Y1131] | 0.477 |
| CTTIHNNYMCN [TP53_Y234_Y234N] | 0.379 |
| VEFAKYGSLRG [RET_Y809_YF] | 0.397 |
| ALAHKYHGGGG [HBB_Y146] | 0.461 |
| SVVVPYEAPEV [TP53_Y220_P222A] | 0.969 |
| NNHGNYIVLLG [ETFDH_Y172_R175L] | 1.66 |
| GGDAVYTNGAI [RFX2_Y82] | 0.359 |
| PVVKLYATDGR [RP1_Y199] | 0.451 |
| GHGRFYMKEAI [PGM1_Y66_D62H] | 0.305 |
| HEKKAYAFCGT [RPS6KA3_Y226_S227A] | 0.458 |
| RGDCTYAPLLG [AR_Y269_M268T] | 7.45 |
| QRTMKYTTATE [MCCC1_Y41_G46E] | 0.862 |
| HRGCLYLAIEY [TEK_Y899_Y897C] | 0.691 |
| SFGENYDNSKS [MAN1B1_Y60] | 0.567 |
| PHQTIYSALMI [FGF23_Y70] | 13.1 |
| ALAHKYLGGGG [HBB_Y146_H147L] | 0.407 |
| NNIDYYKKTTN [FGFR2_Y657] | 0.437 |

| Sequence | phosphorylation enrichment |
| --- | --- |
| LASSEYPVQRR [GALK1_Y236_R239Q] | 0.554 |
| TFEPNYGTVKR [RAPGEF6_Y1447_Q1452R_YF] | 0.385 |
| VFDMLYQVANL [USP24_Y1087_L1089V] | 2.78 |
| HKDNNYISMWF [PAPOLG_Y432_V433I] | 1.33 |
| ARMTNCGLPRY [TSPAN12_Y138_Y138C] | 0.354 |
| FQSKHYACIRQ [TIMP3_Y182_YF] | 0.503 |
| KSLSQYLEMDK [CAGE1_Y438_V435L] | 0.446 |
| PHRSIYFSSPK [MPG_Y75_Y71H] | 0.687 |
| DHKRQYELLKL [KIF4B_Y684_R680H] | 0.367 |
| AAVDEYLEYRR [FAM221A_Y17] | 0.469 |
| IEEGTYGVVYR [CDK11B_Y449] | 4 |
| SNKLYYQLEQE [PDPR_Y110] | 3.9 |
| SAASSYSFSDL [EMD_Y59] | 0.498 |
| CDTKLYTSVPN [DNTTIP2_Y427_A430V] | 1.5 |
| MEVGQYIFVKC [CYBB_Y324] | 0.511 |
| DYNPNYCFAGK [ALK_Y1096] | 0.906 |

Target: FGFR1 (UniProt P11362)
Assay: as above

Sequence of FGFR1 (P11362 whole entry, looked up): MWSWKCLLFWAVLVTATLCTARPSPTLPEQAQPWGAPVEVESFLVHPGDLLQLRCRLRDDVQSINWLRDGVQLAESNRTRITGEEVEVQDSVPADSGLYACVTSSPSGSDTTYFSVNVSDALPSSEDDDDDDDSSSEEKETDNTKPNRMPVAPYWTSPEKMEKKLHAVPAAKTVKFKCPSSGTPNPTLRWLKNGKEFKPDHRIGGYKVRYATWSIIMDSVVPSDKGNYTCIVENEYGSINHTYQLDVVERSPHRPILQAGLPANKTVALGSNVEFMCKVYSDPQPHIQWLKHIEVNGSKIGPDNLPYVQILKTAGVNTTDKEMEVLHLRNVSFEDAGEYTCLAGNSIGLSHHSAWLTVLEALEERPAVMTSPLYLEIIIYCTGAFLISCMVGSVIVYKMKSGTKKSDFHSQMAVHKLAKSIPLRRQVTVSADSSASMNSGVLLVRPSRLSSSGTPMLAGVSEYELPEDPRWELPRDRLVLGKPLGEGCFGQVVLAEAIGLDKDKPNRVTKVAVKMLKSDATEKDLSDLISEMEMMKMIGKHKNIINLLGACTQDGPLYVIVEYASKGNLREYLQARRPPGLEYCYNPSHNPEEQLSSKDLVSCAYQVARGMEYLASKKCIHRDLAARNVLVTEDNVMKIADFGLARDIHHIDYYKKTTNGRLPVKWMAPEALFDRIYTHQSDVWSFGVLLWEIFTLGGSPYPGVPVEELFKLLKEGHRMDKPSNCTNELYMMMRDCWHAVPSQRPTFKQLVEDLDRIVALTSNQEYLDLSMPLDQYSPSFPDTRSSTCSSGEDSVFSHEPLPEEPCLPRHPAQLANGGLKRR

| Sequence | phosphorylation enrichment |
| --- | --- |
| FFIMMYTGSNV [DNAJC13_Y1131] | 0.619 |
| CTTIHNNYMCN [TP53_Y234_Y234N] | 0.423 |
| VEFAKYGSLRG [RET_Y809_YF] | 0.417 |
| ALAHKYHGGGG [HBB_Y146] | 0.537 |
| SVVVPYEAPEV [TP53_Y220_P222A] | 0.483 |
| NNHGNYIVLLG [ETFDH_Y172_R175L] | 2.81 |
| GGDAVYTNGAI [RFX2_Y82] | 0.484 |
| PVVKLYATDGR [RP1_Y199] | 0.648 |
| GHGRFYMKEAI [PGM1_Y66_D62H] | 0.384 |
| HEKKAYAFCGT [RPS6KA3_Y226_S227A] | 0.751 |
| RGDCTYAPLLG [AR_Y269_M268T] | 1.42 |
| QRTMKYTTATE [MCCC1_Y41_G46E] | 0.683 |
| HRGCLYLAIEY [TEK_Y899_Y897C] | 0.827 |
| SFGENYDNSKS [MAN1B1_Y60] | 0.452 |
| PHQTIYSALMI [FGF23_Y70] | 1.88 |
| ALAHKYLGGGG [HBB_Y146_H147L] | 0.307 |
| NNIDYYKKTTN [FGFR2_Y657] | 0.456 |

| Sequence | phosphorylation enrichment |
| --- | --- |
| LASSEYPVQRR [GALK1_Y236_R239Q] | 0.58 |
| TFEPNYGTVKR [RAPGEF6_Y1447_Q1452R_YF] | 0.448 |
| VFDMLYQVANL [USP24_Y1087_L1089V] | 0.943 |
| HKDNNYISMWF [PAPOLG_Y432_V433I] | 3.2 |
| ARMTNCGLPRY [TSPAN12_Y138_Y138C] | 0.446 |
| FQSKHYACIRQ [TIMP3_Y182_YF] | 0.42 |
| KSLSQYLEMDK [CAGE1_Y438_V435L] | 0.545 |
| PHRSIYFSSPK [MPG_Y75_Y71H] | 0.803 |
| DHKRQYELLKL [KIF4B_Y684_R680H] | 0.342 |
| AAVDEYLEYRR [FAM221A_Y17] | 0.513 |
| IEEGTYGVVYR [CDK11B_Y449] | 0.509 |
| SNKLYYQLEQE [PDPR_Y110] | 5.94 |
| SAASSYSFSDL [EMD_Y59] | 0.434 |
| CDTKLYTSVPN [DNTTIP2_Y427_A430V] | 0.62 |
| MEVGQYIFVKC [CYBB_Y324] | 2.8 |
| DYNPNYCFAGK [ALK_Y1096] | 0.641 |
